Like-named read-outs stand apart in the source and are kept apart here.
How the values were obtained:
[1] = system: 3′-amino terminal DNA primer / mixed sequence template duplex; test: Multiple-turnover NP-DNA synthesis by 3′-amino primer extension with all four nNTPs on a mixed sequence template; format: biochemical; settings: 55° C., Ca2+
Description: (§1) Primer extension assays. Except where indicated, all extension reactions were performed with 1 μM fluorescein-labeled primer, 1.5 μM template, and ˜1.1 μM purified His6-tagged protein at 55° C. in a reaction buffer composed of 40 mM Tris-HCl, pH 8.8, 1 mM DTT, and a divalent cation as specified, typically 10 mM CaCl2. Reaction mixtures were equilibrated at the indicated reaction temperature for 1 min and initiated by addition of substrate. Progress was monitored by sampling 1 μL from the reaction manually quenched into 24 μL of chilled 90% formamide, 10 mM EDTA. Quenched samples were denatured at 90° C. for 1 min and cooled to room temperature prior to separation by denaturing polyacrylamide gel electrophoresis on 20% TBE-urea gels. To maintain strand separation for long extension products, as in FIGS. 3F-31I, an unlabeled DNA oligonucleotide complementary to the template was added to the quenching buffer (˜2 μM) prior to denaturation. Typically, 3 or 4 μL of quenched sample was loaded per lane for gels of 0.75-mm thickness. Bands were visualized with a Typhoon laser scanning imager (GE Amersham) and quantified with the manufacturer's software. For acid digestion of extended products, a reaction sample was diluted with 2.5 volumes of 1% acetic acid, 10 mM EDTA in formamide and digested at 75° C. for 45 min prior to gel separation.

[2] = system: 3′-amino terminal DNA primer / DNA template duplex; test: 3′-amino primer extension assay (single nucleotide addition, pre-steady-state NP activity); format: biochemical
Description: as §1

B1: F710Y: B. stearothermophilus DNA polymerase I large fragment (BF) with single active site mutation F710Y in the O helix (protein, listed as Bacillus stearothermophilus)
chain: MKNKLVLIDGNSVAYRAFFALPLLHNDKGIHTNAVYGFTMMLNKILAEEQPTHILVAFDAGKTTFRHETFQDYKGGRQQTPPELSEQFPLLRELLKAYRIPAYELDHYEADDIIGTMAARAEREGFAVKVISGDRDLTQLASPQVTVEITKKGITDIESYTPETVVEKYGLTPEQIVDLKGLMGDKSDNIPGVPGIGEKTAVKLLKQFGTVENVLASIDEIKGEKLKENLRQYRDLALLSKQLAAICRDAPVELTLDDIVYKGEDREKVVALFQELGFQSFLDKMAVQTDEGEKPLAGMDFAIADSVTDEMLADKAALVVEVVGDNYHHAPIVGIALANERGRFFLRPETALADPKFLAWLGDETKKKTMFDSKRAAVALKWKGIELRGVVFDLLLAAYLLDPAQAAGDVAAVAKMHQYEAVRSDEAVYGKGAKRTVPDEPTLAEHLVRKAAAIWALEEPLMDELRRNEQDRLLTELEQPLAGILANMEFTGVKVDTKRLEQMGAELTEQLQAVERRIYELAGQEFNINSPKQLGTVLFDKLQLPVLKKTKTGYSTSADVLEKLAPHHEIVEHILHYRQLGKLQSTYIEGLLKVVHPVTGKVHTMFNQALTQTGRLSSVEPNLQNIPIRLEEGRKIRQAFVPSEPDWLIFAADYSQIELRVLAHIAEDDNLIEAFRRGLDIHTKTAMDIFHVSEEDVTANMRRQAKAVNYGIVYGISDYGLAQNLNITRKEAAEFIERYFASFPGVKQYMDNIVQEAKQKGYVTTLLHRRRYLPDITSRNFNVRSFAERTAMNTPIQGSAADIIKKAMIDLSVRLREERLQARLLLQVHDELILEAPKEEIERLCRLVPEVMEQAVTLRVPLKVDYHYGPTWYDAK
Which “time to full length +28 nt NP-DNA product” value [1] does the source give for B1 here?
Its value is < 24 h.

And the “Selectivity dCTP/nCTP, ratio (kpol/Kd, app)dCTP/(kpol/Kd, app)nCTP” value ([2]; 10 mM CaCl2, pre-steady-state)?
The value was 9.

What about the Kd ([2]; 3′-amino primer extension, 10 mM CaCl2, pre-steady-state, read-out: Kd, app dCTP) of the same molecule?
The Kd was 1100 nM.

What about the Kd ([2]; 3′-amino primer extension, 10 mM CaCl2, pre-steady-state, read-out: Kd, app nCTP) of the same molecule?
Its Kd is 3600 nM.

What about the “kpol dCTP” value ([2]; 3′-amino primer extension, varying dCTP, 10 mM CaCl2, pre-steady-state, 55° C., pH 8.8) of the same molecule?
Its value is 0.191 min⁻¹.

And the “kpol nCTP” value ([2]; 3′-amino primer extension, varying nCTP, 10 mM CaCl2, pre-steady-state, 55° C., pH 8.8)?
The value was 0.069 min⁻¹.

What about the “increase in kpol for dCTP vs. wild-type” value ([2]; Ca2+ cofactor) of the same molecule?
The value was 2.6 fold.

What about the “increase in kpol for nCTP (NP activity) vs. wild-type” value ([2]; Ca2+ cofactor) of the same molecule?
The value was 21 fold.

What about the “transient kpol/Kd for NP-DNA synthesis with Ca2+” value ([2]; nCTP, Ca2+, from Table 4) of the same molecule?
Its value is 320 M⁻¹ s⁻¹.

What about the “maximum reaction velocity / NP activity, Ca2+ vs. Mg2+” value ([2]; saturating Ca2+ vs. Mg2+, faster with Ca2+) of the same molecule?
The value was 5 fold.

What about the “apparent binding affinity for nCTP vs. dCTP, effect of the mutation” value ([2]; with Ca2+) of the same molecule?
Its value is “unaffected”.

What about the “kinetic disadvantage of NP-DNA polymerase activity relative to native phosphodiester bond forming activity” value ([2]; with F710Y) of the same molecule?
The value was “approximately four orders-of-magnitude”.

Source: patent US12428658B2, “Methods and compositions for enzymatic polymerization of N3′→P5′ phosphoramidate DNA” (The General Hospital Corporation, priority 2019, dated 2025)
